The values below come from patent publication US20090175847A1.

In one experiment the target is Aβ(1-40) monomer (human). Kind of experiment: dot blot densitometry; antigen: Aβ(1-40) monomer, 0.1% NH4OH; the dot is read as a thousands separator.
Experiment [1] has as its target Aβ(1-42) globulomer (human) (UniProt P05067). The experiment can be described thus: dot blot densitometry; antigen: Aβ(1-42) globulomer.
Another experiment concerns the target Aβ(1-42) monomer (human). Kind of experiment: dot blot densitometry; antigen: Aβ(1-42) monomer, 0.1% NH4OH; the dot is read as a thousands separator (no dot in column 1 of panel A).
Experiment [2] deals with Aβ(20-42) globulomer (human). Kind of experiment: dot blot densitometry; antigen: Aβ(20-42) globulomer (the reference of the ratio).
Aβ(20-42) globulomer (human), sequence (peptide, as listed by the source): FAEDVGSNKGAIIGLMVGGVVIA
The target in another experiment is Aβ(1-42) fibrils (human) (UniProt P05067). The experiment can be described thus: dot blot densitometry; antigen: Aβ(1-42) fibril; the dot is read as a thousands separator.
Aβ(1-42) fibrils (human), sequence (P05067 672-713 limits assumed): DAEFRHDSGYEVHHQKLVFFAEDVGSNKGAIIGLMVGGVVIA

Where only a bound is given, the exact number is not on record here.

Aβ(1-40) monomer (human), sequence (peptide, as listed by the source): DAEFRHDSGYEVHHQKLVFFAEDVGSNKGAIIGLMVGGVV
Aβ(1-42) globulomer (human), sequence (P05067 672-713 limits assumed): as the sequence (P05067 672-713 limits assumed) above
Aβ(1-42) monomer (human), sequence (peptide, as listed by the source): as the sequence (P05067 672-713 limits assumed) above

B1: humanized antibody 5F7hum8 (antibody, IgG1, V domains shown)
VH: EVQLVQSGAEVKKPGASVKVSCKASGYTFTTFYIHWVRQAPGQGLEWIGMIGPGSGNTYYNEMFKDKATLTVDTSTSTAYMELSSLRSEDTAVYYCARAKSARAAWFAYWGQGTLVTVSS
VL: DIVMTQSPLSLPVTPGEPASISCRSSQSVVQSNGNTYLEWYLQKPGQSPQLLIYKVSNRFSGVPDRFSGSGSGTDFTLKISRVEAEDVGVYYCFQGSHVPPTFGGGTKVEIKR
For B1, the relation between recognition of Aβ(20-42) globulomer and the respective Aβ form with Aβ(1-40) monomer (human) is over 10000; in experiment [1] it was 17; in the experiment with Aβ(1-42) monomer (human), 10400; in experiment [2], 1; with Aβ(1-42) fibrils (human), over 10000.
